# Test results from patent publication US20030138894A1 (Human Genome Sciences, published 2003).
# Positions of bridges follow the written chain, without caps; N, C: chain ends. No end group written: not given here.
# B1: ACE-2 binding polypeptide WEVCHWAPMMCKHG (peptide)
# peptide: WEVCHWAPMMCKHG
# modifications: not fully specified (N-terminus, C-terminus, bridges); cysteine pairing not given here
# B2: ACE-2 binding polypeptide YEFCHYAPQECKHM (peptide)
# peptide: YEFCHYAPQECKHM
# modifications: not fully specified (bridges); cysteine pairing not given here
# B3: ACE-2 binding polypeptide LEMCEALFCVEF (peptide)
# peptide: LEMCEALFCVEF
# modifications: disulfide 4-9 (inferred); not fully specified (N-terminus, C-terminus)
# B4: ACE-2 binding polypeptide QKECKFGYPHCLPW (peptide)
# peptide: QKECKFGYPHCLPW
# modifications: not fully specified (N-terminus, C-terminus, bridges); cysteine pairing not given here
# B5: ACE-2 binding polypeptide EHNCTWWNPCWTT (peptide)
# peptide: EHNCTWWNPCWTT
# modifications: not fully specified (bridges); cysteine pairing not given here
# B6: ACE-2 binding polypeptide MDHCTWYQPCVLK (peptide)
# peptide: MDHCTWYQPCVLK
# modifications: not fully specified (bridges); cysteine pairing not given here
# B7: ACE-2 binding polypeptide WDHCNWAHPCSRK (peptide)
# peptide: WDHCNWAHPCSRK
# modifications: not fully specified (bridges); cysteine pairing not given here
# B8: ACE-2 binding polypeptide SDWCGTWNNPCFHQ (peptide)
# peptide: SDWCGTWNNPCFHQ
# modifications: not fully specified (N-terminus, C-terminus, bridges); cysteine pairing not given here
# B9: ACE-2 binding polypeptide RYLCLPQRDKPWKFCNWF (peptide)
# peptide: RYLCLPQRDKPWKFCNWF
# modifications: not fully specified (N-terminus, C-terminus, bridges); cysteine pairing not given here
# B10: ACE-2 binding polypeptide RLHCKPQRQSPWMKCQHL (peptide)
# peptide: RLHCKPQRQSPWMKCQHL
# modifications: not fully specified (N-terminus, C-terminus, bridges); cysteine pairing not given here
# B11: ACE-2 binding polypeptide YSHCSPLRYYPWWKCTYP (peptide)
# peptide: YSHCSPLRYYPWWKCTYP
# modifications: not fully specified (N-terminus, C-terminus, bridges); cysteine pairing not given here
# B12: ACE-2 binding polypeptide LHACRPVRGDPWWACTLG (peptide)
# peptide: LHACRPVRGDPWWACTLG
# modifications: disulfide 4-15 (inferred); not fully specified (N-terminus, C-terminus)
# B13: DX-512 Ac-GDRLHCKPQRQSPWMKCQHLDPEGGG-NH2 (peptide)
# peptide: Ac-GDRLHCKPQRQSPWMKCQHLDPEGGG-NH2
# modifications: disulfide 6-17 (inferred); also: oxidized peptide
# notes: synthetic, TN12 library; also called B-H7
# B14: DX-513 Ac-GDLHACRPVRGDPWWACTLGDPEGGG-NH2 (peptide)
# peptide: Ac-GDLHACRPVRGDPWWACTLGDPEGGG-NH2
# modifications: disulfide 6-17 (inferred); also: oxidized peptide
# notes: synthetic, TN12 library; also called ACEH2-D8
# B15: DX-524 Ac-GSRIGCRDSRCNWWAPGEGGG-NH2 (peptide)
# peptide: Ac-GSRIGCRDSRCNWWAPGEGGG-NH2
# modifications: disulfide 6-11 (inferred); also: oxidized peptide
# B16: DX-525 Ac-GSRGFCRDSSCSFPAPGEGGG-NH2 (peptide)
# peptide: Ac-GSRGFCRDSSCSFPAPGEGGG-NH2
# modifications: disulfide 6-11 (inferred); also: oxidized peptide
# B17: DX-529 Ac-AGWEVCHWAPMMCKHGGTEGGG-NH2 (peptide)
# peptide: Ac-AGWEVCHWAPMMCKHGGTEGGG-NH2
# modifications: disulfide 6-13 (inferred); also: oxidized peptide
# B18: DX-530 Ac-AGQKECKFGYPHCLPWGTEGGG-NH2 (peptide)
# peptide: Ac-AGQKECKFGYPHCLPWGTEGGG-NH2
# modifications: disulfide 6-13 (inferred); also: oxidized peptide
# B19: DX-531 Ac-AGSDWCGTWNNPCFHQGTEGGG-NH2 (peptide)
# peptide: Ac-AGSDWCGTWNNPCFHQGTEGGG-NH2
# modifications: disulfide 6-13 (inferred); also: oxidized peptide
# B20: DX-599 Ac-GDRYLCLPQRDKPWKFCNWFDPEGGG-NH2 (peptide)
# peptide: Ac-GDRYLCLPQRDKPWKFCNWFDPEGGG-NH2
# modifications: disulfide 6-17 (inferred); also: oxidized peptide
# B21: DX-601 Ac-GDGFTCSPIRMFPWFRCDLGDPEGGG-NH2 (peptide)
# peptide: Ac-GDGFTCSPIRMFPWFRCDLGDPEGGG-NH2
# modifications: disulfide 6-17 (inferred); not fully specified; printed as Ac-GDGFTCSPIRMFPWFRCDLGDPEGGG-NH2
# B22: DX-602 Ac-GDFSPCKALRHSPWWVCPSGDPEGGG-NH2 (peptide)
# peptide: Ac-GDFSPCKALRHSPWWVCPSGDPEGGG-NH2
# modifications: disulfide 6-17 (inferred); also: oxidized peptide
# Target: T1, FLAG-tagged ACE-2 target (human, UniProt Q9BYF1 18-740)
# T1 construct: range 1-740; obtained from Human Genome Sciences, Inc; also called FLAG-ACE-2; tagged human ACE-2; not shown: FLAG tag
# Experiment: phage ELISA on FLAG-ACE-2
# Protocol: Phage enriched from the third round of selection were screened by ELISA for strong ACE-2 binders. Immulon 2 96-well plates (Dynatech) were coated with streptavidin for 1 hour at 37° C. and subsequently coated with anti-FLAG antibody for 1 hour at room temperature. Half of the plates were further coated with FLAG-ACE-2 as the target plates, and the other half of the plates were coated with FLAG peptide as background plates. The amount of each protein or peptide coated was 100 ng per well. The coated plates were then incubated for 1 hour at room temperature with 1:2 diluted overnight phage cultures that were made by inoculating phage from individual plaques into bacterial host cells. After being washed 7 times with PBST, the plates were incubated with HRP-conjugated anti-M13 antibody (Pharmacia) for 1 hour at room temperature, washed 5 times, developed with TMB peroxidase substrate solution (Kirkegaad & Perry Laboratories, Gaithersburg, Md.), and read at 630 nm on an ELISA plate reader.
# T1 sequence (Q9BYF1 18-740 limits assumed): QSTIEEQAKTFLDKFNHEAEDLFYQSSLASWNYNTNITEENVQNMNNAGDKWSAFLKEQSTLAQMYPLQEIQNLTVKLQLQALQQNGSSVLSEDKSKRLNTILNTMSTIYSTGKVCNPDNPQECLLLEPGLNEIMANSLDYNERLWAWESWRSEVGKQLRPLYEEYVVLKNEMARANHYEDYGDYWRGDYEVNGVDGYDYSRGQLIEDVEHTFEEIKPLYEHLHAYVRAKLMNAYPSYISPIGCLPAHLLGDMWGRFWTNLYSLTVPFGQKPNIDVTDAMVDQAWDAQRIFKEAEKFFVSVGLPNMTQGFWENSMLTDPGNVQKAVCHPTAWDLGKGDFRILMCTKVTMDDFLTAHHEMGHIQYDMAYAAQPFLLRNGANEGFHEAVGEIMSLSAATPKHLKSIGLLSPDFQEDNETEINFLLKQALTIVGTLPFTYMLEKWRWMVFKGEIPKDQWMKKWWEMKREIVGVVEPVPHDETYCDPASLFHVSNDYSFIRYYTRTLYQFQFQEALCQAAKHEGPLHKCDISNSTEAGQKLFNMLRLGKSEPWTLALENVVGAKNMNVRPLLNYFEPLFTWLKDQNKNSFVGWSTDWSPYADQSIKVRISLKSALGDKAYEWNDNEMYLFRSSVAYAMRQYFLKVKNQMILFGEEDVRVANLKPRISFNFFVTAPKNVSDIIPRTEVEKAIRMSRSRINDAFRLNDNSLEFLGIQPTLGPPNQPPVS
row,Binder,binding result
1,B1,binds
2,B2,binds
3,B3,binds
4,B4,binds
5,B5,binds
6,B6,binds
7,B7,binds
8,B8,binds
9,B9,binds
10,B10,binds
11,B11,binds
12,B12,binds

# Target: T2, recombinant human-ACE-2 (human, UniProt Q9BYF1 18-740, limits assumed)
# T2 construct: Enzyme of the M-2195 fluorometric assay; also called rhACE-2
# Experiment: fluorometric ACE-2 activity assay, M-2195 substrate
# Protocol: Assay mixture was prepared first by pre-incubating (30 minutes, room temperature) the enzyme with the inhibitor (0.45 μg ([…]) ACE-2, 0-0.5 μM inhibitor rage, up to 90 […] volume with 100 mM TRIS pH 7.4, 0.1% Tween-20, 0.4% DMSO) in each well, in triplicate, by dispensing volumes using a repeat pipetter (Rainin) into a 96-well clear-bottom back plate (Costar, 07-200-590). […] Substrate stock (10 μL of 10× concentration) was added to each well to be tested in blocks of three vertically down the plate. The reaction was monitored on a Spectrafluor Plus (Tecan) at an excitation wavelength of 340 nm and an emission wavelength of 400 nm (+/−35 nm) every 30 seconds for a time period of 10 minutes.
# T2 sequence (Q9BYF1 18-740 limits assumed): as above
row,Binder,Ki [µM]
1,B13,0.15
2,B14,0.15

# Target: T2, recombinant human-ACE-2
# Experiment: cell-based or functional assay
row,Binder,IC50 [µM]
1,B13,0.06
2,B14,0.09
3,B15,0.6
4,B16,1
5,B17,0.4
6,B18,30
7,B19,0.5
8,B20,0.14
9,B21,0.068
10,B22,0.12
